Reference: the supplement of paper PMC12042874
± gives the uncertainty stated by the source.

Assay: amyloid nucleation score (Sup35N fusion, yeast selection) (log enrichment); library NNK1; higher = more nucleation; inactive = no reads after selection
Procedure, shortened: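 Plasmid inserts were Illumina-sequenced at input and output from psi-negative yeast expressing Sup35N fused to peptides of 20 random codons. The yeast were induced with 100 μM copper sulfate for 24 hours and grown 7 days at 30°C on medium lacking adenine and uracil, and sequences with under 100 input reads were excluded. Nucleation score is the DiMSum log enrichment of output over input reads, centred on the mode score of non-aggregating sequences.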

Substance | amyloid nucleation score
FNAAYIAGVGNLMTWDNSSN | -1.07 ± 0.61
FNFMFAKDGGSDTFLRFDRV | 4.83 ± 0.11
FNFRYPKDRGVSIVGCNFPM | -0.065 ± 0.51
FNGGNTFVCVSLDTCWNGWY | 7.54 ± 0.085
FNIHCVSSA | -0.015 ± 0.47
FNISFCIASSYVNTIGKQQG | 3.32 ± 0.12
FNLWIP | 2.13 ± 0.17
FNPLRVNYGLWDRSAR | 0.248 ± 0.83
FNVALFMEI | 1.07 ± 0.27
FNYEGYNMSCCGYRQFMEFG | 5.87 ± 0.073
FPCLTSSTSGYWSLI | 1.32 ± 0.12
FPFAYGVSESQSSVIHVLDV | -0.063 ± 0.26
FPLAIVLIVN | 0.059 ± 0.39
FPSNPYPNLPNMDVKRSNAF | inactive
FPYGSVIVVFVDFWYRLSSV | -0.343 ± 0.34
FQHTLGRKA | 0.438 ± 0.68
FQMLF | -0.752 ± 0.7
FQMNSCNWSVTGRIVFPDVY | 1.58 ± 0.42
FQSISGFSATHWIFFMEGTY | 0.216 ± 0.45
FRALKLEAIPAKVGAPYLVP | 0.045 ± 0.4
FRFGTA | 0.39 ± 0.49
FRGFVVGGGT | -0.664 ± 0.61

Substance | amyloid nucleation score
FRIVGSRMFVLLLCYVSSGR | 0.241 ± 0.27
FRLDNLRCTWVFRYPIGESS | 1.17 ± 0.73
FRLSWHSYNSMWINTVTSPQ | 2.75 ± 0.078
FRNGDGVQPWLTWHAV | 1.28 ± 0.33
FRQPGYMCEIRVVGFGPKPL | -0.274 ± 0.9
FRRMVTVNEAWHHRKAGSAN | 1.47 ± 0.65
FRSFLVPACYHGFGDGYMFF | -0.439 ± 0.77
FRSVGVYAISNLYGHSRYFS | -0.533 ± 0.42
FRSVSGNMYTLLFRIE | 1.62 ± 0.24
FRTHVGSDCGL | -0.026 ± 1
FRVVCVHSLSMGNVFNFDWR | 4.77 ± 0.08
FSCCILPCSLSHSMVFLGSG | 8.064 ± 0.08
FSCGCIRYFSG | -0.115 ± 0.91
FSCLNSFKRVFNFNIPASVC | -0.863 ± 1
FSDNRASPESKPQCVTGRRD | 0.669 ± 0.31
FSEVTLFFPKDAILEFSARC | -0.353 ± 0.79
FSFRRFCLCMLREGHTRQLG | -0.957 ± 2.4
FSFSIAMVNLVEDATVDCAG | -0.048 ± 0.31
FSFYMLRFFSKTSYYSLMSF | -0.721 ± 0.27
FSGCGWYRTVDYGGP | inactive
FSGQAITLVCWIVGQILPFS | inactive
FSHAGD | -0.494 ± 0.71

Substance | amyloid nucleation score
FSISKLFGLNADTVHTRHKK | 0.073 ± 0.38
FSKTAGEVAYSLTESTDVRS | -1.26 ± 0.88
FSMGGYFLFLCNNFTLYHIS | 7.598 ± 0.07
FSMIMSLDVL | -0.397 ± 0.4
FSNLKISWECNRCGSYYDCE | -0.122 ± 1.4
FSNRWFC | -0.578 ± 0.31
FSQLYMGMYPGHNLLKYHSG | -0.275 ± 0.22
FSQVSEEIIGVFLSISYCIL | 2.93 ± 0.074
FSSICSRMEEGMTE | 0.001 ± 0.34
FSSRWSI | -0.138 ± 0.6
FSSSWELVRLYTASCKHDSK | 0.782 ± 0.2
FSTAM | 0.895 ± 0.79
FSVLVPMYK | -0.361 ± 0.6
FSVRGYSNLSAEDFINLKVP | -0.522 ± 1.4
FSVYVGVILCVSATVDVWAC | 1.87 ± 0.23
FSYLSFCPVVSFESTFPTPM | 5.29 ± 0.066
FSYRSIWLRVLRV | -0.111 ± 0.4
FTGDVPEDTLRLSSFENMRR | 0.384 ± 0.53
FTISSKLRYIGTGVINGPVD | -0.397 ± 0.56
FTKFRYRTLINSYNFWGTGA | -0.115 ± 1.4
FTLCQASYMN | -0.655 ± 0.67
FTLIIRDLMFSRHEFRVHAG | -0.213 ± 0.39

Substance | amyloid nucleation score
FTLSKTILDRSFLWIQGLWS | -0.354 ± 0.81
FTMKMGYMVAFIW | -0.394 ± 0.25
FTNRTIFFV | -0.023 ± 0.91
FTSSIMEFNESQWVNFTFIW | 4.42 ± 0.053
FTSSVIILCIFYWNGLVRIF | -0.505 ± 1.5
FTYIISRISFMRDWVF | -0.257 ± 1.4
FVAISVSTIRQCGVCRGGTC | 4.29 ± 0.12
FVCRFQYFSRYATNYFYVWC | inactive
FVFSGFYT | 0.353 ± 0.21
FVGEN | 0.281 ± 0.52
FVGMSRFFKVH | -0.629 ± 0.39
FVGRSVCAKMTPHRLTAIGP | -0.082 ± 0.67
FVGSSFGDDFISVSIHSWRP | inactive
FVIFSIELCGHRATSSSFNL | 5.565 ± 0.047
FVKFVTSEAFDHVLRTNWN | inactive
FVKVAPANKGISGKRDLCKL | 0.215 ± 0.3
FVLQKGYK | 0.2 ± 0.59
FVMLGWFSRNIGLYEVFVFT | 0.502 ± 0.36
FVSLNTIFRAYPQIHYRLVR | inactive
FVSVAQVEE | -1.2 ± 1
FVSVCD | -0.049 ± 1
